Data: a protein production outcome set (Wang et al. 2014)

Test: label from the status in PepcDB records

| Sequence | protein production |
| --- | --- |
| MSAHPLAQLETFKHTSKQWNQLREAANMSNRMEHILQAMPSGVVILNGDGIVTDANPVAVELLEQSLCGARWIDVIHTAFAPQDDDGHEVSLRNGRRVKLAITPLTPEPGQLIVLTDLTETRLLQKNLSHLQRLSALGKMVATLAHQVRTPLSAALLYAANLASPKLSDSAKVKFQQKLVDRLNELERQVNDMLLMAKGRQDELGELINLNDVIENVVANCEPIVAKHGAELTVTNASNGLMLANVNALSSAVNNLVMNSLEAGATQIQLVANEIDDQLHLNVVDNGKGLDAKMQQRVLEPFFTTKAQGTGLGLAVVQSVVRNHGGQLQLNCMPNKGCTVSLTFPQAKSATVLPLEKSHV | failed |
| AWAGLQTKHLKVGDIEWVYSESGNSSKPTIILIHGLAGSRDNWNRVAYNLTPYYHVIIPDLPAHGDTKIPNDFDLSIPNLTEKLRRFAEAGHFEKNVHIAGHSMGGAIALLYTAQYPLETKSLLLVDSAGVFKTANTPYLKDPNLLNNLVVKKTGDFDKLFKLATASPPFIPVELKTEQEKLMIAQSKNTQKMVDQLVAMSKIYTPDTFAIATKSIDVPTYIIWGDQDKIINVEAAQELKSLLKNAETPYILKGVGHMPILEADQLVSQQYLIFLNK | failed |
| MFAYSARLFLRPLWSDDLGVLLDLLDTASSRSGLLDSPDNDVTRYLRDNAARLIHENDVTRPHSGIFLRDGKEPRLIGITALAGKEAHFFCWIAPAFRGQGFATEASRLMLHFADEALRLPSLTAAYDHADAAAEKLLTKLGFSE | failed |
| MSYVDISYYKDNFKGDILNDDTLENRLERASDQIDKLTYNRIIGVEFKNLSPFQQDKIKKAVCLQAEFIEQYGEFINMPLSGFSAGSTSVSFNGSIVNGITTTQEVINYIYQTGLNSRRILEHHHHHH | failed |
| IQVFVKNPDGGSYAYAINPNSFILGLKQQIEDQQGLPKKQQQLEFQGQVLQDWLGLGIYGIQDSDTLILSKKKG | not failed |
| MNNIIVGMGEALWDVLPEGKKIGGAPANFAYHVSQFGFDSRVVSAVGNDELGDEIMEVFKEKQLKNQIERVDYPTGTVQVTLDDEGVPCYEIKEGVAWDNIPFTDELKRLALNTRAVCFGSLAQRNEVSRATINRFLDTMPDIDGQLKIFDINLRQDFYTKEVLRESFKRCNILKINDEELVTISRMFGYPGIDLQDKCWILLAKYNLKMLILTCGINGSYVFTPGVVSFQETPKVPVADTVGAGDSFTAAFCASILNGKSVPEAHKLAVEVSAYVCTQSGAMPELPVILKDRLL | not failed |
| MSASSLFNLPLIRLRSLALSSSFSSFRFAHRPLSSISPRKLPNFRAFSGTAMTDTKDAGMDAVQRRLMFEDECILVDETDRVVGHDSKYNCHLMENIEAKNLLHRAFSVFLFNSKYELLLQQRSNTKVTFPLVWTNTCCSHPLYRESELIQDNALGVRNAAQRKLLDELGIVAEDVPVDEFTPLGRMLYKAPSDGKWGEHELDYLLFIVRDVKVQPNPDEVAEIKYVSREELKELVKKADAGEEGLKLSPWFRLVVDNFLMKWWDHVEKGTLVEAIDMKTIHKL | failed |
| METSKKLVIVAVLSITLILTYAYLISIIEGVDYFTALYFSVITITTTGYGDFTPKTFLGRTLTVVYLCVGVGIVMYLFSLIAEFIVEGKFEEFVRLKKMKNKIKTLKDHYIICGYGRLGKVVGEKFIEENIPFIAIDINEDVLKEEYEKYPDKFLYIVGDAKKEEVLKKAKIDKAKGLIATLPSDADNVFLTLTARELNPNILITAKADEKEAIRKLKIAGANRVVSPYLIGGLRMAEVSVRPGILDFLSTFIKIAKDEYEEDIELRKFVIEKDSELAYKSLKDANIRGKTGATILGIRREKEFCINPYPEFILKPGDVIYAFGTEENLKYLENLVKKKKKKL | failed |
| MNDQELRAYLSQAKTIAVLGAHKDPSRPAHYVPRYLREQGYRVLPVNPRFQGEELFGEEAVASLLDLKEPVDILDVFRPPSALMDHLPEVLALRPGLVWLQSGIRHPEFEKALKEAGIPVVADRCLMVEHKRLFRGPLPL | not failed |
| MRDEAGSRGIVMQNASANALVPREAARAAPMADIQKIAQHMARLNVAALPRNYELFHEAIIGLNAGLAQDIAALGSQPQQPMLDELGLKYRLAGHCGLAGETSRNEASRMLRDVAERLAEGLRHKNAFARACGTILKSVSGQNDQSLAAFLSEIDYLTASLSTVLAAEMEIGAKLQDDIKTLETLERGISAMQSAAIADRITGLPNRIALNRTIADLYERQEGAAGSALIMVDIDNFTDLNDKYGTQAGNKLLKKLAGLLQKSIKKNDFVARTEGDEFALLFSNVGMQDAIAIAERLRASVEDNLVFATSDKTDRGRLTISIGVALSTDAATPGQLQANARVALLAAQSNPRLPVQAFGR | failed |
| MTLPIPSSPPRIKINLPCFQYVGTEMSVDIITSIWFMTLTEFATFMPKRDMCPKPASIPPAAPTVENTVPTTIPQINRRSSITSSSSTTVDNFVIKIYQVYRRMQTLTLEISTTKRSVLNKLKRASLTFQQFKNLLYLCLLEYYKNTKDVKPFLSVSFLEKFVKGKENLPFENEKIKSYREKLKELWEKEIGSDTVKALARQVSKEVKSVLEKWKKGERAFLPRPRKLKKVHKFTVPTNPNMLVDKRKLKRRRENSIVVRLGISFGAVKVKIPQGINIRDVKITWYEDTEVIFRISYEVPKAQKELLKEKWLSIDLGVRNLVSCISNDENLRSFIVDGNPLKSFNQWVNKLSAKLRSEGKERLERKLWRYRKKRIKGFFHQVANLIVRVCLERGIGRVIIPNSLNEEYQKDSEKGARFNQEFRFIPLGELVKMIEYKCELCGIEVVKEDESWTSKVSSVSGNIEVLKEEIPEGEVKKLKFEGRRIKRGLFRDRRLKKVFNADLNGALNLAIKALGKKVREEFLSLRNWLDKLSRPVKVNLFRYPASLPVLWEIAGSKSCSPKGDSEGHFAGSVSDLITFAHF | failed |
| GAPLKAVSAFAPPMKTQDFNLYTNEVHAKFDDYDLGMEYARQHNKPVMLDFTGYGCVNCRKMELAVWTDPKVSSIINNDYVLITLYVDNKTPLTEPVKIMENGTERTLRTVGDKWSYLQRVKFGANAQPFYVLIDNEGNPLNKSYAYDEDISKYINFLQTGLENYRKEK | not failed |
| MTGCFLWQLYLPKLQTGSLKPEVPPAPVKMCPRHPELVPLAHPLPVLKEALEKVDGILRKAMLAPGLAAMSALVIHNDTVLWTGNFGRKNGSDPNSGTPNEYTMYRIASISKIFPVLMLYRLWEEGIVDSLDDPLERYASTFSINNPLGTAQGPGAQGPTGESEEMGSLPRPSPVTLRRMASQLSGLPRRLRGTSLLWRGSTQEALSLLKDDVLVADPGTRCHYSTLAFSLLAHVLAAHRAQGDYERWVSEQVLEPLGMSDTGFALTGTVRARLAAGFYGSGRSAPLYDLGWYRPSGQMYSTAADLARLAAALLGAGPRRLLRPDSLATLLAPLRACAHGYFASETGTPWEFHERRGYRVARKDGDLDGYAASLALVPPLRLGFVLLLAGPRPPTRDLVADALDTLLPALERALREAELAPAPPPRARPFAGFFTFANRTFYEVRAAGPRGELRLRQFGPRVEALVPAAFRSLALRHVRGRVFQLHVAREFPCALPLADAWLSLESQHGQLVRFYPLDRHGLAPGFDSCDSMDGWNTTCSAVHFLEDVWVVYNLQFL | failed |
| MAAGTFTAQNKVRPGVYINFKSEPQAAGTLGERGIVSMPLILSWGEPGKMITIEAGDDVFPKLGYSIMDAQLRLINEALKRAKTLLLYRLNAGTKAAVTVGNLTVTAKWGGARGNDITLVIQENIDDETKFDVSTLVDGAELDKQTVSDIAGLAANDWVIFSGTGALTETAGAPLINGSDGAVTNQAYIDYLAAVEIFDFNTIALPSTDDALKATFTAFAKRLRDDEGKKIQVVLENYPAADYEGVISVKNGVVLADGTILTAAQATAWVAGATAGARVNESLTYQGYDEAVDVAPRYTNAQIIAALQAGEFLFTASDNQALVEQDINTLTSFTADKGKQFAKNRVIRVLDGINNDFVRIFSKFYIGKVSNNADGRNLLKSECINYMNTLQDIDAIKNFDGQTDLTVQSGNDVDAVYIEAYAWPVDSIEKIYVRVRIKLEHHHHHH | not failed |
| MSATTTNLKEAIVNRRSIRKVTKNDAITKERIEEVLKTALHAPTSFNMQSGRMVVLMDGEHEKFWDIVKETLRARVPAENFEATVERLKGFHAGVGTVLFFEDQATVEKMQENAPLYKDQFPFWSHQGNAMLQHTVWMLLSAEGIGASLQHYNPIVDAEVKETWNIPAEWSLVGQMPFGEPNEQPAERTFLPTEDVVKFY | not failed |
| MGHHHHHHSHMNLERLRKRVRQYLDQQQYQSALFWADKVASLSREEPQDIYWLAQCLYLTAQYHRAAHALRSRKLDKLYEACRYLAARCHYAAKEHQQALDVLDMEEPINKRLFEKYLKDESGFKDPSSDW | failed |
| MQWPPPWRRSPLVSATPPPGPTRGLLCPRRVSEAGDSSTEGARTGHSHYVTPAESAMEGRSQPLPSLRPASPTNAPAHGRGSDCTAKEPPLANVCRQNYGAAQDPVELAGRRSASHVTGSSLGKAEVACGRRWRWAELLADTSWSPAGRATEMKVKMLSRNPDNYVRETKLDLQRVPRNYDPALHPFEVPREYVRALNATKLERVFAKPFLASLDGHRDGVNCLAKHPEKLATVLSGACDGEVRIWNLTQRNCIRTIQAHEGFVRGICTRFCGTSFFTVGDDKTVKQWKMDGPGYGDEEEPLHTILGKTVYTGIDHHWKEAVFATCGQQVDIWDEQRTNPICSMTWGFDSISSVKFNPIETFLLGSCASDRNIVLYDMRQATPLKKVILDMRTNTICWNPMEAFIFTAANEDYNLYTFDMRALDTPVMVHMDHVSAVLDVDYSPTGKEFVSASFDKSIRIFPVDKSRSREVYHTKRMQHVICVKWTSDSKYIMCGSDEMNIRLWKANASEKLGVLTSREKAAKDYNQKLKEKFQHYPHIKRIARHRHLPKSIYSQIQEQRIMKEARRRKEVNRIKHSKPGSVPLVSEKKKHVVAVVK | failed |
| MSRDPILSLPWPDARPLPDTFFDRDALLVARELLGKVIRHRQGNLWLAARIIETEAYYLEEKGSHASLGYTEKRKALFLDGGHIYMYYARGGDSLNFSAGGPGNAVLIKSGHPWLDRISDHTALERMQSLNPDSQGRPREIGRLCAGQTLLCKAMGLKVPEWDAQRFDPQRLFVDDVGERPSQVIQAARLGIPKGRDEHLPYRFVDAAFAAFCTRNPLRRGQVAGRDYHLLGHQDPHLQ | failed |
| MGHHHHHHSHMTKREYDQCRIQVRLPDGTSLTQTFRAREQLAAVRLYVELHRGEELGGGQDPVQLLSGFPRRAFSEADMERPLQELGLVPSAVLIVAKKCPS | failed |
| MKAIIMAGGQGKRLRPLTCNLPKPMMPIMQKPVLQYIIELLKKHGINEIGITLHYLPDEVMDYFGDGKELGVNIHYFIEQSPLGTAGSVRNAESFLDETFVVISGDALTDVNLTNILQYHKEKNAMVTIVLKKVTIPLEYGVAITDTEGRISNFIEKPGWGEIFSDKANTGIYVMEPGIFEFYNKDKKFDFSEELFPELLKSGKEIFGYVVNDYWRDIGNIEQFMKCNFDILNGYVDVDVDIDASQHQKGVWIGKNTIVSDNVKVIPPVYIGDNSEIRYGAEIGPFAVIGRNNIISEMATIKRSIIFENCYIGSGAELRGSVVSNNVQVGGGVSTFEESAIGTGSLVGEKSVVKAGVKIWPDKVIGSKTIIKTNVVWGENRCKVLFGKEGISGEINVELTPEFVSKLASAFASNLRMNSKVVVCSDYNLAAEMLKYSFVSGLISMGIEVYSAKEMTIPMLRFSTAYFKADAAVYIYCKGSNKEKVNILFIDKDGIMISRSMEKKIANSFLREDFRRTRANNFKRLRDFGECMGYYEDYIKENLCIQEIRNSGLKVAVSMENKLIKNEVKSIFSDLKIQYSIYDNYADLEGLKKEVIEKKMDFGVCISENCDKAIIIDENANIISTQMYESIKALILISVYKFKTIVAPVNSSKALKYIAKRYNCKYVKSKISERYILNEYILNEKDKNIKEVLFSYLSSTDALNIVINIINILARGKIKLSELMERIPNYILREKEIACSWDNKGKIMRSLIEENISKSIELIEGIKVNYEDAWVLIIPDSDEPICKIYAESNDEEKTDKIINEFESEIELFMKN | failed |
